# US20040253248A1
# Molecular target: rat neurokinin-1 receptor (NK-1R) (rat) (UniProt P14600)
# Sequence (P14600 whole entry): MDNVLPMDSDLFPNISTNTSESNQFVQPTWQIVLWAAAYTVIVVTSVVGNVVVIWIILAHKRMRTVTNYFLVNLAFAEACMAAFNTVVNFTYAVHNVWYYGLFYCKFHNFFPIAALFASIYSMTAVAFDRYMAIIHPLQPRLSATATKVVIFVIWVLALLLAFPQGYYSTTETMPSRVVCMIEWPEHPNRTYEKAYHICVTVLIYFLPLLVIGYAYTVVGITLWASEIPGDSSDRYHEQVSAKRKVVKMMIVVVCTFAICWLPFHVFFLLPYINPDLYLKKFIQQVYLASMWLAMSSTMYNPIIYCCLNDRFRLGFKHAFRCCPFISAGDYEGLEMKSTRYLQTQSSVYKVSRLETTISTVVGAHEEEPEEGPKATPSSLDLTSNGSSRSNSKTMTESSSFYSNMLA
substance,measurement,value
"[Sar9, Met (02)11]-SP-SAP (from UniProt P20656 25-277)",IC50 (read off the curve),0.2 nM
